Results on four substances are retold here after patent publication US20180118802A1.

Assay [1] deals with 8D6 CR12 (human) (UniProt Q9NPF0). Nature of the assay: solid-phase binding assay (FIG. 10).
The target of assay [2] is CR pair used to test the MatRAP1 truncations (not named). As to the kind of experiment: solid-phase binding assay of truncated variants (FIG. 9).
Assay [3] has as its target LRP2 CR89 (human) (UniProt P98164). Nature of the assay: solid-phase binding assay, CR protein coated, anti-RAP detection.

MatRAP1 N-42, sequence (P30533 other isoform, or with tags, fused parts or gaps): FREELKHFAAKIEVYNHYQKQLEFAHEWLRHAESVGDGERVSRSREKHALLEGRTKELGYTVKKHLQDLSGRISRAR
LRP2 CR89 (human), sequence (P98164 1025-1102): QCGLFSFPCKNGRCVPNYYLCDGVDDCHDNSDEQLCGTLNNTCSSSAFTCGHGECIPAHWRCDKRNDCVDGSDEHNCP
8D6 CR12 (human), sequence (Q9NPF0 other isoform, or with tags, fused parts or gaps): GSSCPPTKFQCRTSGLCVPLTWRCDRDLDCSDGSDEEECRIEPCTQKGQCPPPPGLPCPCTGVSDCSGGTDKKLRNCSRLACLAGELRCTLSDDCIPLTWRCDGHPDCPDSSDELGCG

Take “320RAP1 truncated form (identical truncations, amino acids 243-313) (from UniProt P30533 277-347) (ligand)”: the fold improvement in affinity against the full-length variant in assay [1] turned out to be 3.5 fold.
Regarding “MatRAP1 N-42 (from UniProt P30533 277-353) (ligand)”, the fold increase in affinity over the full-length d3 variant in assay [2] was determined as 3 fold.
Turning to “MatRAP1 amino acids 243-313 (best truncated variant, 71 amino acids) (from UniProt P30533 277-347) (ligand)”, in assay [2], the fold increase in affinity over MatRAP1 N-42 is 4 fold and the fold increase in affinity over the full-length d3 variant came to 12 fold.
In assay [3], “MegaRAP1 d3 Y249H (from UniProt P30533 235-353) (ligand)” had a % max of 35%.
